Experimental data reported in IntAct's records for PubMed 18796637.

B1: B-box zinc finger protein 22 (Arabidopsis thaliana (Mouse-ear cress)), Q9SYM2 (parent)
chain: MKIQCNVCEAAEATVLCCADEAALCWACDEKIHAANKLAGKHQRVPLSASASSIPKCDICQEASGFFFCLQDRALLCRKCDVAIHTVNPHVSAHQRFLLTGIKVGLESIDTGPSTKSSPTNDDKTMETKPFVQSIPEPQKMAFDHHHHQQQQEQQEGVIPGTKVNDQTSTKLPLVSSGSTTGSIPQWQIEEIFGLTDFDQSYEYMENNGSSKADTSRRGDSDSSSMMRSAEEDGEDNNNCLGGETSWAVPQIQSPPTASGLNWPKHFHHHSVFVPDITSSTPYTGSSPNQRVGKRRRRF
partner: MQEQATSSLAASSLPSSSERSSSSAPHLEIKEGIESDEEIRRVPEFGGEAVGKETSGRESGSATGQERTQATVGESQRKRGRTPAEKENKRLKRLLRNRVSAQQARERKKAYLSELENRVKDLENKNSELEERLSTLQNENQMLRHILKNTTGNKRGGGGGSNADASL

Variants of: B1
Settings: with hy5_arath HY5, O24646

Question: Which “effect of a mutation on the interaction” value does the source give for MKIQCNVCEAAEATVLCCADEAALCWACDEKIHAANKLAGKHQRVPLSASASSIPKCDICQEASGFFFCLQDRALLCRKCAVAIHTVNPHVSAHQRFLLTGIKVGLESIDTGPSTKSSPTNDDKTMETKPFVQSIPEPQKMAFDHHHHQQQQEQQEGVIPGTKVNDQTSTKLPLVSSGSTTGSIPQWQIEEIFGLTDFDQSYEYMENNGSSKADTSRRGDSDSSSMMRSAEEDGEDNNNCLGGETSWAVPQIQSPPTASGLNWPKHFHHHSVFVPDITSSTPYTGSSPNQRVGKRRRRF [D81A] here?
Answer: disrupting interaction

Question: How did the “effect of a mutation on the interaction” value turn out when MKIQCNVCEAAEATVLCCADEAALCWACDEKIHAANKLAGKHQRVPLSASASSIPKCDICQEASGFFFCLQARALLCRKCDVAIHTVNPHVSAHQRFLLTGIKVGLESIDTGPSTKSSPTNDDKTMETKPFVQSIPEPQKMAFDHHHHQQQQEQQEGVIPGTKVNDQTSTKLPLVSSGSTTGSIPQWQIEEIFGLTDFDQSYEYMENNGSSKADTSRRGDSDSSSMMRSAEEDGEDNNNCLGGETSWAVPQIQSPPTASGLNWPKHFHHHSVFVPDITSSTPYTGSSPNQRVGKRRRRF [D72A] was run?
Answer: disrupting interaction
